From patent publication US11155643B2, “Glucan kinases and methods for processing starch using the same” (University of Kentucky Research Foundation, priority 2017, dated 2021)
One block for each molecule: values may come before it.

Columns and labels:
[1] = target: T1, Cyanidioschyzon merolae Cm-GWD DUF domain (CmGWD DUF, amino acids 345-469; full length Cm-GWD SEQ ID NO: 2) (Cyanidioschyzon merolae, UniProt M1VD00); experiment: differential scanning fluorimetry (DSF)-based thermal shift assay, oligosaccharide binding
T1 construct: recombinant, purified
T1 sequence (M1VD00 345-469): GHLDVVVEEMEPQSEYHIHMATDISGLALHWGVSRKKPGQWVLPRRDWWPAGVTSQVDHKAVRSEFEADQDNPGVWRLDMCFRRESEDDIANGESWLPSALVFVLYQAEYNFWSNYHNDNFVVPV
Experimental: FIGS. 5A-C show graphs and images illustrating expression and thermal shift of various domains of the Cm-GWD. (A) is an image showing the expression of the Cm-GWD DUF domain constructs with varying N- and C-termini. (B) is an image showing the expression of individual N-terminal domains of Cm-GWD.
To characterize the enzymes' structure, the architecture of the dikinases was first analyzed. The sequences of the dikinases were analyzed using bioinformatic tools. The dikinase primary sequences from multiple species were analyzed to predict sequence conservation, secondary structure, regions of disorder, and regions of hydrophobicity in order to define the optimal constructs for recombinant protein expression of Cm-GWD. At-GWD and PWD have been reported to have cTP, one or two CBM domains, and a dikinase domain (FIG. 4). […]
The binding of purified proteins to oligosaccharides was measured using a differential scanning fluorimetry (DSF)-based thermal shift assay. […] As a proof of principle, the binding of the Cm-GWD DUF to the oligosaccharide maltohexaose and to maltose was measured, as a negative control. […] The change in Tm was monitored with increasing concentration of oligosaccharide (FIG. 5C). […]

[2] = cellulose phosphorylation assay (33P-β-ATP radio-label incorporation into cellulose); assay type: biochemical; conditions: FIG. 11C, 11D
Experimental: Next, it was tested whether phosphorylation could be directed towards cellulose, the most abundant polymer on earth, by building chimeras comprising cellulose-binding CBMs. Both the CBM30 and CBM44 were chosen from the cellulase CelJ of the thermophilic, gram-positive bacterium Clostridium thermocellum, which bind cellulose with high affinity. The engineered protein containing CtCBM30 and CtCBM44 was purified. The starch-phosphorylation assay was modified to develop an assay for measure phosphorylation of cellulose, which was obtained from Sigma-Avicel PH-101. To measure dikinase activity, the cellulose was incubated with the engineered chimeric dikinase in question along with ^33P-β-ATP, the ^33P-β-ATP and enzyme were washed out, and radio-label incorporation into the cellulose was measured.

[3] = stability of purified, concentrated protein on storage; assay type: physicochemical; conditions: 4° C., concentrated to 18 mg/ml
Experimental: In addition, these constructs were purified using a 3-step purification scheme to sufficient purity for enzymatic assays (FIGS. 9B,D & 10A). Constructs that express each of the individual domains were identified, as well as constructs just lacking the cTP. Expression yields for these constructs ranged from 2-65 mg/1 L of E. coli using a 3-step purification. One of the most promising St-GWD constructs allowed the instant inventors to purify 60-65 mg of >95% pure St-GWD per liter of E. coli using a 3-step purification protocol (FIGS. 10A & 10B). Importantly, the purified protein was concentrated to 18 mg/ml and the protein was stable at 4° C. for >1 WEEK.

[4] = glucose release from native starch treated with combinations of amylases, dikinase and phosphatase; assay type: biochemical, Arabidopsis; conditions: BAM3, ISA3; 25° C., 60 minutes; FIG. 7
Experimental: FIG. 7 includes a plot showing the glucose released for native Arabidopsis starch that was incubated at 25° C. for 60 minutes with combinations of amylases (BAM+ISA), dikinase (At-GWD), or phosphatase (At-SEX4), undigested starch was pelleted with a high-speed spin, the supernatant sugars were hydrolyzed via acid hydrolysis and glucose content was measured.
To observe how GWDs can be utilized to enhance starch utilization, native Arabidopsis starch was first treated with combinations of BAM3, ISA3, St-GWD, and At-SEX4. a high-speed spin was performed to remove the undigested starch, any remaining oligo-saccharides were hydrolyzed, and glucose released into the supernatant was measured (FIG. 7). Glucose was only released upon addition of amylases.
Native Arabidopsis starch was treated with combinations of BAM3, ISA3, StGWD, and AtSEX4, performed a high-speed spin to remove the undigested starch, hydrolyzed any remaining oligo-saccharides, and measured glucose released into the supernatant (FIG. 7). Glucose was only released upon addition of amylases, as expected.

Kd ([1]; change in Tm with increasing concentration of oligosaccharide, apparent dissociation constant): 7 mM
Molecule: OC[C@H]1O[C@H](O[C@H]2[C@H](O)[C@@H](O)[C@@H](O[C@H]3[C@H](O)[C@@H](O)[C@@H](O[C@H]4[C@H](O)[C@@H](O)[C@@H](O[C@H]5[C@H](O)[C@@H](O)[C@@H](O[C@H]6[C@H](O)[C@@H](O)C(O)O[C@@H]6CO)O[C@@H]5CO)O[C@@H]4CO)O[C@@H]3CO)O[C@@H]2CO)[C@H](O)[C@@H](O)[C@@H]1O (some centres unmarked) [maltohexaose]

stabilization (change in Tm) ([1]; increasing concentration of oligosaccharide, negative control): No stabilization
Molecule: OC[C@H]1O[C@H](O[C@H]2[C@H](O)[C@@H](O)C(O)O[C@@H]2CO)[C@H](O)[C@@H](O)[C@@H]1O (some centres unmarked) [maltose]

B1: CtCBM30-StGWD: chimera of Clostridium thermocellum CelJ CBM30 and StGWD dikinase domain (protein)
chain: MGHHHHHHMEQKLISEEDLTSASSASAETVAPEGYRKLLDVQIFKDSPVVGWSGSGMGELETIGDTLPVDTTVTYNGLPTLRLNVQTTVQSGWWISLLTLRGWNTHDLSQYVENGYLEFDIKGKEGGEDFVIGFRDKVYERVYGLEIDVTTVISNYVTVTTDWQHVKIPLRDLMKINNGFDPSSVTCLVFSKRYADPFTVWFSDIKITSEDNEKSAPAIKVGVQINPVSGLPSGFQDLLHFVLDHVEDKNVETLLERLLEAREELRPLLLKPNNRLKDLLFLDIALDSTVRTAVERGYEELNNANPEKIMYFISLVLENLALSVDDNEDLVYCLKGWNQALSMSNGGDNHWALFAKAVLDRTRLALASKAEWYHHLLQPSAEYLGSILGVDQWALNIFTEEIIRAGSAASLSSLLNRLDPVLRKTANLGSWQIISPVEAVGYVVVVDELLSVQNEIYEKPTILVAKSVKGEEEIPDGAVALITPDMPDVLSHVSVRARNGKVCFATCFDPNILADLQAKEGRILLLKPTPSDIIYSEVNEIELQSSSNLVEAETSATLRLVKKQFGGCYAISADEFTSEMVGAKSRNIAYLKGKVPSSVGIPTSVALPFGVFEKVLSDDINQGVAKELQILMKKLSEGDFSALGEIRTTVLDLSAPAQLVKELKEKMQGSGMPWPGDEGPKRWEQAWMAIKKVWASKWNERAYFSTRKVKLDHDYLCMAVLVQEIINADYAFVIHTTNPSSGDDSEIYAEVVRGLGETLVGAYPGRALSFICKKKDLNSPQVLGYPSKPIGLFIKRSIIFRSDSNGEDLEGYAGAGLYDSVPMDEEEKVVIDYSSDPLITDGNFRQTILSNIARAGHAIEELYGSPQDIEGVVRDGKIYVVQTRPQM
modifications: Chimeric Protein
notes: chimera of Clostridium thermocellum CelJ CBM30 and StGWD dikinase domain
phosphorylation of cellulose [2]: robustly phosphorylated cellulose

effect on glucose release when added to amylases [4]: almost doubled
B2: St-GWD: full length Solanum tuberosum glucan, water dikinase, amino acids 1-1464 (protein, listed as Solanum tuberosum)
chain: MSNSLGNNLLYQGFLTSTVLEHKSRISPPCVGGNSLFQQQVISKSPLSTEFRGNRLKVQKKKIPMEKKRAFSSSPHAVLTTDTSSELAEKFSLGGNIELQVDVRPPTSGDVSFVDFQVTNGSDKLFLHWGAVKFGKETWSLPNDRPDGTKVYKNKALRTPFVKSGSNSILRLEIRDTAIEAIEFLIYDEAHDKWIKNNGGNFRVKLSRKEIRGPDVSVPEELVQIQSYLRWERKGKQNYPPEKEKEEYEAARTVLQEEIARGASIQDIRARLTKTNDKSQSKEEPLHVTKSDIPDDLAQAQAYIRWEKAGKPNYPPEKQIEELEEARRELQLELEKGITLDELRKTITKGEIKTKVEKHLKRSSFAVERIQRKKRDFGHLINKYTSSPAVQVQKVLEEPPALSKIKLYAKEKEEQIDDPILNKKIFKVDDGELLVLVAKSSGKTKVHLATDLNQPITLHWALSKSPGEWMVPPSSILPPGSIILDKAAETPFSASSSDGLTSKVQSLDIVIEDGNFVGMPFVLLSGEKWIKNQGSDFYVGFSAASKLALKAAGDGSGTAKSLLDKIADMESEAQKSFMHRFNIAADLIEDATSAGELGFAGILVWMRFMATRQLIWNKNYNVKPREISKAQDRLTDLLQNAFTSHPQYREILRMIMSTVGRGGEGDVGQRIRDEILVIQRNNDCKGGMMQEWHQKLHNNTSPDDVVICQALIDYKSDFDLGVYWKTLNENGITKERLLSYDRAIHSEPNFRGDQKGGLLRDLGHYMRTLKAVHSGADLESAIANCMGYKTEGEGFMVGVQINPVSGLPSGFQDLLHFVLDHVEDKNVETLLERLLEAREELRPLLLKPNNRLKDLLFLDIALDSTVRTAVERGYEELNNANPEKIMYFISLVLENLALSVDDNEDLVYCLKGWNQALSMSNGGDNHWALFAKAVLDRTRLALASKAEWYHHLLQPSAEYLGSILGVDQWALNIFTEEIIRAGSAASLSSLLNRLDPVLRKTANLGSWQIISPVEAVGYVVVVDELLSVQNEIYEKPTILVAKSVKGEEEIPDGAVALITPDMPDVLSHVSVRARNGKVCFATCFDPNILADLQAKEGRILLLKPTPSDIIYSEVNEIELQSSSNLVEAETSATLRLVKKQFGGCYAISADEFTSEMVGAKSRNIAYLKGKVPSSVGIPTSVALPFGVFEKVLSDDINQGVAKELQILMKKLSEGDFSALGEIRTTVLDLSAPAQLVKELKEKMQGSGMPWPGDEGPKRWEQAWMAIKKVWASKWNERAYFSTRKVKLDHDYLCMAVLVQEIINADYAFVIHTTNPSSGDDSEIYAEVVRGLGETLVGAYPGRALSFICKKKDLNSPQVLGYPSKPIGLFIKRSIIFRSDSNGEDLEGYAGAGLYDSVPMDEEEKVVIDYSSDPLITDGNFRQTILSNIARAGHAIEELYGSPQDIEGVVRDGKIYVVQTRPQM
time the protein was stable [3]: > 1 WEEK
